T1: DmAgo2 (Drosophila melanogaster, UniProt Q9VUQ5 403-1214)
T1 sequence: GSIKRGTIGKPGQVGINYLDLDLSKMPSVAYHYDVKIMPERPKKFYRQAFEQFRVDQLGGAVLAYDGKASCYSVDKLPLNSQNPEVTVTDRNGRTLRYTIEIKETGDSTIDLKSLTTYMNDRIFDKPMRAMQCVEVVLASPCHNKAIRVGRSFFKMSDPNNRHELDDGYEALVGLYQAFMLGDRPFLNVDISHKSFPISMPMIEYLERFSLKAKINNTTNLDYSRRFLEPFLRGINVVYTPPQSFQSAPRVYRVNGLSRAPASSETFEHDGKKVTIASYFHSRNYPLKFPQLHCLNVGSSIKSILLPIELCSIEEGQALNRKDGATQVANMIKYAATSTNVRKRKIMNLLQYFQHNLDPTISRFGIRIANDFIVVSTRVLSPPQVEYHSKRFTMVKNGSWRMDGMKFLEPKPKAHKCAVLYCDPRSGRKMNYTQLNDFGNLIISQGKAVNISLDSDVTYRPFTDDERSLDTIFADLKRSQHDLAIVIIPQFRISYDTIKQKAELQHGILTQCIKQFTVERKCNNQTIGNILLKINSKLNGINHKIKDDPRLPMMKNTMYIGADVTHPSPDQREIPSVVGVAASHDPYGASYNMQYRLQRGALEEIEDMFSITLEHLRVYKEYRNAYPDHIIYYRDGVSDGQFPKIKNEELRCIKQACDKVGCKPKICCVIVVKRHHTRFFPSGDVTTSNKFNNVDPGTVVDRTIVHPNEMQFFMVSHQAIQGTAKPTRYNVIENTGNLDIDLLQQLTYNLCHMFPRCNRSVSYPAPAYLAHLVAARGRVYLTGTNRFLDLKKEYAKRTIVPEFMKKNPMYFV

B1: bantam guide / 43-nt target (1-12 match) (dsRNA)
RNA 1: UGAGAUCAUUUUGAAAGCUGAUU
RNA 2: AGUUCUUAAGUUAGUCGAAACAAAAUGAUCUCACAUAGGCUUA
modifications: target printed as DNA letters, assayed as RNA

Tests used:
DmAgo2 = biological target: T1, DmAgo2; experiment: competitive double filter binding
DmAgo1 WT = DmAgo1 WT (Drosophila melanogaster, UniProt A1Z9J5 1-950); experiment: filter binding

Binder	Kd (DmAgo2)	binding result (DmAgo1 WT)
UGAGAUCAUUUUGAAAGCUGAUU (ssRNA, 5' phosphate on labeled RNA (PNK)) [bantam miRNA 23 nt]	10.7 ± 1 nM	–
B1	–	binds

From paper PMC3597821
